{
  "source": "paper PMC5798227",
  "target": "DS-SOSIP.664 trimer (BG505) (HIV-1 BG505 (clade A))",
  "experiment": "SPR",
  "data": [
    {"substance": "2-domain soluble CD4 (receptor)", "values": [
      {"measurement": "Kd", "result": 8, "unit": "nM"}
    ]}
  ]
}
